The source of these data is article PMC2288894.

Experiment [1] addresses the class I heavy chains (H-2Kb, Db, Kd, and Ld; Fig. 9). Put plainly: co-IP.
The target in experiment [2] is H-2Kd class I heavy chain (mouse (endogenous in MDAY-D2)). Put plainly: cross-linking.
Experiment [3] deals with H-2Kb class I heavy chain (mouse (endogenous in EL4)). Put plainly: cross-linking.
The target in experiment [4] is H-2Db class I heavy chain (mouse (endogenous in EL4)). Put plainly: cross-linking.
Experiment [5] has as its target H-2Ld class I heavy chain (mouse (endogenous in MDAY-D2)). Put plainly: cross-linking.
In experiment [6] the target is the other three class I molecules (Bio-Gel A0.5m). Kind of experiment: SEC.

Chain of H-2Kb class I heavy chain (mouse (endogenous in EL4)) (P01901 22-369): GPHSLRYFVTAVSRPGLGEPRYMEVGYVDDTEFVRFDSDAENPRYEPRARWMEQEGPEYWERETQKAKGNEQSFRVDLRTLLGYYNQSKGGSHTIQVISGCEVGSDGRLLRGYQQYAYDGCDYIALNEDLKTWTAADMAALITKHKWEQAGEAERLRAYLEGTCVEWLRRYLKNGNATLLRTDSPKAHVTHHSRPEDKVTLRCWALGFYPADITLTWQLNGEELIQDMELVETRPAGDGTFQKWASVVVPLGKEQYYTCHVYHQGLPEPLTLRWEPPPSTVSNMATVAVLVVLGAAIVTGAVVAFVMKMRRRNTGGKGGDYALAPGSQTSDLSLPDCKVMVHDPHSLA
Chain of H-2Db class I heavy chain (mouse (endogenous in EL4)) (P01899 25-362): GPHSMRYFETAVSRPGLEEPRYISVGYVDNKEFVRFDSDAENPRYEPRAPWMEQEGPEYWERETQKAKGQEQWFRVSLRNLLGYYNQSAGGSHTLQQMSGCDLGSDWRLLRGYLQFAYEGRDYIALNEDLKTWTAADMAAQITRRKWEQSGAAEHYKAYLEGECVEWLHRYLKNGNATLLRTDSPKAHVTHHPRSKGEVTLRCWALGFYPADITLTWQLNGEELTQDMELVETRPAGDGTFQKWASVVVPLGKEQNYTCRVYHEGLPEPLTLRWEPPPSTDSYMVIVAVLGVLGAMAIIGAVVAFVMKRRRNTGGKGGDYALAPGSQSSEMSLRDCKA
Chain of H-2Ld class I heavy chain (mouse (endogenous in MDAY-D2)) (P01897 25-362): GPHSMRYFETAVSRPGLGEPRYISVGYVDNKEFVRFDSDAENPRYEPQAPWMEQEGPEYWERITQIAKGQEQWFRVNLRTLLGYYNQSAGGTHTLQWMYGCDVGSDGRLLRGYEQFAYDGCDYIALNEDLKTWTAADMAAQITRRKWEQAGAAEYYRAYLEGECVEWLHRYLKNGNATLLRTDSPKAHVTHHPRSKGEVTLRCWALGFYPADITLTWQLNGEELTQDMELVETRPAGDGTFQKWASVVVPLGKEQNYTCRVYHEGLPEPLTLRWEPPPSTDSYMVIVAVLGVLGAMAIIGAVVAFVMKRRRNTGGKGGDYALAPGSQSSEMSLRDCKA
Chain of H-2Kd class I heavy chain (mouse (endogenous in MDAY-D2)) (P01902 22-368): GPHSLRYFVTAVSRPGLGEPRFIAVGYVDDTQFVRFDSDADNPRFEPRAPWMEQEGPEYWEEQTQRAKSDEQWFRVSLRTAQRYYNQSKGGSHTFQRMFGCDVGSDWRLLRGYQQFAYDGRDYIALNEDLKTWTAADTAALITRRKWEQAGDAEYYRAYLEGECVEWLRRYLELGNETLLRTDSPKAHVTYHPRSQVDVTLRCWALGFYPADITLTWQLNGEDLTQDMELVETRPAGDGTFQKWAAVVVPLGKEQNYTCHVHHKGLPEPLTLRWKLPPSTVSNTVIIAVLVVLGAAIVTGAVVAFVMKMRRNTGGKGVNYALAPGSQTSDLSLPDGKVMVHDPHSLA

In turn, “beta 2-microglobulin (from UniProt P01887 21-119) (natural protein)” showed a half-time of association post pulse (in cells) in experiment [1] of 2 to 5 min.

B1: p88 (novel 88-kD protein) (natural protein)
chain: HDGHDDDAIDIEDDLDDVIEEVEDSKSKSDASTPPSPKVTYKAPVPTGEVYFADSFDRGSLSGWILSKAKKDDTDDEIAKYDGKWEVDEMKETKLPGDKGLVLMSRAKHHAISAKLNKPFLFDTKPLIVQYEVNFQNGIECGGAYVKLLSKTAELSLDQFHDKTPYTIMFGPDKCGEDYKLHFIFRHKNPKTGVYEEKHAKRPDADLKTYFTDKKTHLYTLILNPDNSFEILVDQSVVNSGNLLNDMTPPVNPSREIEDPEDRKPEDWDERPKIADPDAVKPDDWDEDAPSKIPDEEATKPEGWLDDEPEYIPDPDAEKPEDWDEDMDGEWEAPQIANPKCESAPGCGVWQRPMIDNPNYKGKWKPPMIDNPNYQGIWKPRKIPNPDFFEDLEPFKMTPFSAIGLELWSMTSDIFFDNFIISGDRRVVDDWANDGWGLKKAADGAAEPGVVLQMLEAAEERPWLWVVYILTVALPVFLVILFCCSGKKQSNAMEYKKTDAPQPDVKDEEGKEEEKNKRDEEEEEEKLEEKQKSDAEEDGVTGSQDEEDSKPKAEEDEILNRSPRNRKPRRE
In the case of B1, the half-time of disappearance of the complex after the pulse (in cells) stood at 38 min in experiment [2], 20 min in experiment [3], 45 min in experiment [4] and 45 min in experiment [5]. Moreover, the half-time of p88 dissociation in the presence of BFA (in cells) in experiment [3] was 23 min; in experiment [4], 42 min. Besides, the percent of heavy chains in the oligomeric species in the pulse-labeled sample in experiment [6] fell in the range of 20 to 60%.
